Experimental data: patent publication US20260116987A1 (Gilead, published 2026)
Residue numbers refer to the chain shown, from its start.

B1: 7-B16 chimera (human IgG1) (antibody)
heavy: not shown
light: DIVMTQAEPSVPVTPGESISISCRSSKSLLHSNGNTYLYWFLQRPGQSPQLLIYRMSNLASGVPDRFSGSGSGTAFTLRISRVEAEDVGVYYCMQHLEYPFTFGGGTKLEIKRTVAAPSVFIFPPSDEQLKSGTASVVCLLNNFYPREAKVQWKVDNALQSGNSQESVTEQDSKDSTYSLSSTLTLSKADYEKHKVYACEVTHQGLSSPVTKSFNRGEC
notes: also called 7-B16.hG1 Chimera; Wild type 7-B16
B2: 7B16-L1.001 (CDR L1 swapped mutant of 7-B16) (antibody, V domains shown)
VH: EVQLVESGGGLVQPKGSLKLSCAASGFTFNTYAMNWVRQAPGKGLEWVARIRSKSNNYATYYADSVKDRFTISRDDSQSMLYLQMNNLKTEDTAMYYCVRGLLRYRFFDVWGAGTTVTVSS
VL: DIVMTQAEPSVPVTPGESISISCRSSQSLLHSNGYNYLDWFLQRPGQSPQLLIYRMSNLASGVPDRFSGSGSGTAFTLRISRVEAEDVGVYYCMQHLEYPFTFGGGTKLEIKR
notes: also called CDR swapped variant L1
B3: 1-K17 chimera (human IgG1) (antibody)
heavy: not shown
light: DVVMTQTPLSLPVSLGDQASISCRSSQSLVHSNGNTYLYWYLQKPGQSPKLLIYKVSNRFSGVPDRFSGSGSGTDFTLKISRVEAEDLGVYFCSQSTHVPYTFGGGTKLEIKRTVAAPSVFIFPPSDEQLKSGTASVVCLLNNFYPREAKVQWKVDNALQSGNSQESVTEQDSKDSTYSLSSTLTLSKADYEKHKVYACEVTHQGLSSPVTKSFNRGEC
notes: also called 1-K17.hG1 Chimera
B4: 7-B16 (mouse hybridoma antibody) (antibody, mouse IgG1, kappa)
heavy: EVQLVESGGGLVQPKGSLKLSCAASGFTFNTYAMNWVRQAPGKGLEWVARIRSKSNNYATYYADSVKDRFTISRDDSQSMLYLQMNNLKTEDTAMYYCVRGLLRYRFFDVWGAGTTVTVSSAKTTPPSVYPLAPGSAAQTNSMVTLGCLVKGYFPEPVTVTWNSGSLSSGVHTFPAVLESDLYTLSSSVTVPSSPRPSETVTCNVAHPASSTKVDKKIVPRDCGCKPCICTVPEVSSVFIFPPKPKDVLTITLTPKVTCVVVDISKDDPEVQFSWFVDDVEVHTAQTQPREEQFNSTFRSVSELPIMHQDWLNGKEFKCRVNSAAFPAPIEKTISKTKGRPKAPQVYTIPPPKEQMAKDKVSLTCMITDFFPEDITVEWQWNGQPAENYKNTQPIMNTNGSYFVYSKLNVQKSNWEAGNTFTCSVLHEGLHNHHTEKSLSHSPG
light: DIVMTQAEPSVPVTPGESISISCRSSKSLLHSNGNTYLYWFLQRPGQSPQLLIYRMSNLASGVPDRFSGSGSGTAFTLRISRVEAEDVGVYYCMQHLEYPFTFGGGTKLEIKRADAAPTVSIFPPSSEQLTSGGASVVCFLNNFYPKDINVKWKIDGSERQNGVLNSWTDQDSKDSTYSMSSTLTLTKDEYERHNSYTCEATHKTSTSPIVKSFNRNEC
B5: 7B16-H3.001 (CDR H3 swapped mutant of 7-B16) (antibody, V domains shown)
VH: EVQLVESGGGLVQPKGSLKLSCAASGFTFNTYAMNWVRQAPGKGLEWVARIRSKSNNYATYYADSVKDRFTISRDDSQSMLYLQMNNLKTEDTAMYYCTRYYYYYGMDVWGAGTTVTVSS
VL: B2 VL with Q27K, Y35N, N36T, D39Y
notes: also called CDR swapped variant H3

How the values were obtained:
[1] = biological target: T1, Human CCR8 (C-C chemokine receptor type 8) expressed on CHO-S cells (human, UniProt P51685 1-355); assay: flow cytometry epitope binning, tandem format, human CCR8-overexpressing cells; competitor 7-B16
T1 construct: also called huCCR8; human CCR8-expressing CHO-S cells
Description: (§1) A subset of antibodies against human CCR8 were epitope binned using flow cytometry method in tandem format. Briefly, one set of antibodies was biotinylated. Human CCR8-overexpressing cells were incubated at 4° C., with the non-biotinylated antibodies at 10 μg/mL for 1 hour, then without washing the biotinylated antibodies were added at 10 μg/mL. After a further 1-hour incubation, cells were washed three times and then stained with streptavidin-phycoerythrin (PE-strep) secondary antibody for 30 minutes. Binding competition was determined by detecting PE by flow cytometry. The response values were normalized as the % of the maximum binding of the individual antibody.

[2] = biological target: T1, Human CCR8 (C-C chemokine receptor type …); assay: KinExA, on-cell, human CCR8-expressing CHO-S cells; calculated from Kd and kon
Description: (§2) Samples were gently rocked for 2.5 hours at 37° C. to achieve equilibrium.
(§3) To determine the rate of association (kₒₙ), the same immobilized biotinylated goat anti-human IgG-PMMA column was used as the capture reagent for kinetic experiments.
(§4) Data analysis was performed using KinExA Pro software at Sapidyne Instruments Inc to generate Kd and kₒₙ, The rate of dissociation (koff) was calculated based on the equation below.

[3] = biological target: T1, Human CCR8 (C-C chemokine receptor type …); assay: flow cytometry epitope binning, tandem format, human CCR8-overexpressing cells; competitor 1-K17
Description: as §1

[4] = biological target: T1, Human CCR8 (C-C chemokine receptor type …); assay: flow cytometry epitope binning, tandem format, human CCR8-overexpressing cells; competitor 6-B09
Description: as §1

[5] = biological target: T1, Human CCR8 (C-C chemokine receptor type …); assay: cell-based or functional assay
[6] = biological target: T1, Human CCR8 (C-C chemokine receptor type …); assay: flow cytometry epitope binning, tandem format, human CCR8-overexpressing cells; competitor 1-K16
Description: as §1

[7] = biological target: T2, Human CCR8 on human CCR8-overexpression lipoparticles (human, UniProt P51685 1-355); assay: sequential format ELISA on human CCR8-overexpression lipoparticles; competitor 1-K17
[8] = biological target: T1, Human CCR8 (C-C chemokine receptor type …); assay: cell-based or functional assay; remark: listed apart in the source
[9] = biological target: T1, Human CCR8 (C-C chemokine receptor type …); assay: flow cytometry, human CCR8-overexpressing against parental CHO-S cells
Description: The first category of variant (single substitution mutation in the CDR H3) included variants in which each amino acid residue of the heavy chain CDR 3 (i.e., , CDR H3) was iteratively substituted with an alanine residue.
(§5) CCR8 binding was determined using flow cytometry according to the same methods used in Example 4, Briefly, antibodies were screened for specific binding to human CCR8 by flow cytometry using human CCR8-overexpressing and parental CHO—S cell line. Antibodies specifically binding to human CCR8 were also tested for binding to CCR4 by flow cytometry.

[10] = biological target: T2, Human CCR8 on human CCR8-overexpression …; assay: sequential format ELISA on human CCR8-overexpression lipoparticles; competitor 1-K16
[11] = biological target: T1, Human CCR8 (C-C chemokine receptor type …); assay: cell-based or functional assay; remark: listed apart in the source
[12] = biological target: T1, Human CCR8 (C-C chemokine receptor type …); assay: flow cytometry epitope binning, tandem format, human CCR8-overexpressing cells; competitor 19-O07
Description: as §1

[13] = biological target: T2, Human CCR8 on human CCR8-overexpression …; assay: sequential format ELISA on human CCR8-overexpression lipoparticles; competitor 7-B16
[14] = biological target: T3, Human CCR4 expressed on CHO-S cells (human, UniProt P51679 1-360); assay: flow cytometry
T3 construct: whole, on cells; also called CCR4-expressing CHO-S cells
T3 sequence (looked up): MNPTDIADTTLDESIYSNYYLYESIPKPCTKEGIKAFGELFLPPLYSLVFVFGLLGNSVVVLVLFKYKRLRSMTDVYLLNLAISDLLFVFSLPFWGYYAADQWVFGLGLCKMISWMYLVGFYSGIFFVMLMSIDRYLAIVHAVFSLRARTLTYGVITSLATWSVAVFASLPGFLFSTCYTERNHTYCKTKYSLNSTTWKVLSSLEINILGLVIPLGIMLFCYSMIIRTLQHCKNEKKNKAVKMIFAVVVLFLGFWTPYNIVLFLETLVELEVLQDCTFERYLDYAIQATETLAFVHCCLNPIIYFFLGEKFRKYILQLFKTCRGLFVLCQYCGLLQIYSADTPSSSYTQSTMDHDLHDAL

[15] = biological target: T2, Human CCR8 on human CCR8-overexpression …; assay: sequential format ELISA on human CCR8-overexpression lipoparticles; competitor 19-O07
[16] = biological target: T1, Human CCR8 (C-C chemokine receptor type …); assay: KinExA, on-cell, human CCR8-expressing CHO-S cells
Description: as §2, §3, §4

[17] = biological target: T2, Human CCR8 on human CCR8-overexpression …; assay: sequential format ELISA on human CCR8-overexpression lipoparticles; competitor 6-B09
[18] = biological target: T1, Human CCR8 (C-C chemokine receptor type …); assay: flow cytometry on CHO cells expressing CCR8, EC50 column
Description: as §5

[19] = biological target: T4, CCR8-NT.MBP (CCR8 N-terminus peptide aa 1-35 fused with maltose binding protein); assay: ForteBio Octet, antibody captured on AHC biosensors, CCR8-NT.MBP as analyte
[20] = biological target: T4, CCR8-NT.MBP (CCR8 N-terminus peptide aa …); assay: ForteBio Octet, antibody captured on AHC biosensors
[21] = biological target: T3, Human CCR4 expressed on CHO-S cells; assay: flow cytometry (PE-A), human CCR4-expressing CHO-S cells against parental CHO-S cells; antibody concentration not given
[22] = biological target: T1, Human CCR8 (C-C chemokine receptor type …); assay: flow cytometry (PE-A), human CCR8-expressing CHO-S cells against parental CHO-S cells; antibody concentration not given

T1 sequence (P51685 whole entry): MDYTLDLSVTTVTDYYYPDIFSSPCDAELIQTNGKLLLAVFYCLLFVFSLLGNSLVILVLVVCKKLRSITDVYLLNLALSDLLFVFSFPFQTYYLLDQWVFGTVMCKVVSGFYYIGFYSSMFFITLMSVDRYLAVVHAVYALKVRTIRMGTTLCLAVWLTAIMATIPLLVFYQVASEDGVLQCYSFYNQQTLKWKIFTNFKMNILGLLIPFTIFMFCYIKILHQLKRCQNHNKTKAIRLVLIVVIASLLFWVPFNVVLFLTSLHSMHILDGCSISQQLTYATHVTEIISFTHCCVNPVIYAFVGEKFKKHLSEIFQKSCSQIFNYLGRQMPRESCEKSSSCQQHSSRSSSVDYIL
T2 sequence (P51685 whole entry): as above

| Binder | % of the maximum binding [1] | koff [2] | % of the maximum binding [3] | % of the maximum binding [4] | IC50, antagonist activity in DiscoverX PathHunter beta-arrestin assay with 13.7 nM human CCL1 [5] | % of the maximum binding [6] | ELISA epitope binning signal [7] | ELISA epitope binning signal [10] | EC50 of ADCC function (Promega ADCC reporter bioassay) [11] | % of the maximum binding [12] | ELISA epitope binning signal [13] | binding result [14] | ELISA epitope binning signal [15] | Kd [16] | kon [16] | ELISA epitope binning signal [17] | binding result [18] | Octet Response (nm) [19] | binding result [20] | further results |
| --- | --- | --- | --- | --- | --- | --- | --- | --- | --- | --- | --- | --- | --- | --- | --- | --- | --- | --- | --- | --- |
| B1 | 41% | 0.00134 s⁻¹ | 18% | 175% | 0.09 µg/mL | 14% | 0.771 | 0.101 | 0.00691 µg/mL | 148% | 0.655 | no binding | 0.437 | 0.22 nM | 6.08e+06 M⁻¹ s⁻¹ | 1.04 |  |  |  | ADCC (Fold Induction) [8]: 23.3 fold; Flow (fold over parent) [9]: 10 fold |
| B2 |  |  |  |  |  |  |  |  |  |  |  |  |  |  |  |  | no binding | 0.0039 nm | no binding (tested: 300 nM CCR8-NT.MBP) |  |
| B3 | 14% | 0.000144 s⁻¹ | 11% | 102% | 0.071 µg/mL | 12% | 0.124 | 0.036 | 0.00618 µg/mL | 28% | 0.047 | no binding | 0.268 | 0.018 nM | 7.81e+06 M⁻¹ s⁻¹ | 0.651 |  |  |  |  |
| B4 |  |  |  |  |  |  |  |  |  |  |  |  |  |  |  |  |  |  |  | binding result [21]: no binding; binding result [22]: binds |
| B5 |  |  |  |  |  |  |  |  |  |  |  |  |  |  |  |  | no binding | 0.0093 nm | no binding (tested: 300 nM CCR8-NT.MBP) |  |
